Data: patent publication US20140213531A1 (POLYPHOR, published 2014)

T1: CathepsinG, from human neutrophils (human, UniProt P08311 21-244)
T1 construct: purified natural enzyme, bought
T1 sequence (looked up): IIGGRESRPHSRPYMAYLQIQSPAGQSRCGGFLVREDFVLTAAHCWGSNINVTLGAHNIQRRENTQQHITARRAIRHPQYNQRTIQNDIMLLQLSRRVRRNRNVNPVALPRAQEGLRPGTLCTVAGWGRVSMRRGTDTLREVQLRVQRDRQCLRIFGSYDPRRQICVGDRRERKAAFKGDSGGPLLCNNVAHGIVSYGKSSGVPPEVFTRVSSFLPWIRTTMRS

T2: Chymase, from human skin (human, UniProt P23946 22-247)
T2 construct: purified natural enzyme, bought
T2 sequence (looked up): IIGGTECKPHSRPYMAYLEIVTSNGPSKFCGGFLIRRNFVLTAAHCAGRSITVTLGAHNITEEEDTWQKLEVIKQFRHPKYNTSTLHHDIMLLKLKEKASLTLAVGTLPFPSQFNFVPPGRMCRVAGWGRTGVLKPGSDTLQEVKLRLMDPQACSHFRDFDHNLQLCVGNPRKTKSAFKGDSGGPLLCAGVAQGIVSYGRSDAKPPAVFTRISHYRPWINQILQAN

B1: Example 153 (peptide)
peptide: XCTASXPPQCQ
HELM: PEPTIDE1{[O=C([C@H](CCc1ccccc1)N[*:1])[*:2]].C.T.A.S.[CCCCCCCC[C@H](N[*:1])C(=O)[*:2]].P.P.Q.C.Q.[dP].P}$PEPTIDE1,PEPTIDE1,2:R3-10:R3|PEPTIDE1,PEPTIDE1,1:R1-13:R2$$$V2.0
SMILES: CCCCCCCC[C@@H]1NC(=O)[C@H](CO)NC(=O)[C@H](C)NC(=O)[C@H]([C@@H](C)O)NC(=O)[C@@H]2CSSC[C@H](NC(=O)[C@H](CCC(N)=O)NC(=O)[C@@H]3CCCN3C(=O)[C@@H]3CCCN3C1=O)C(=O)N[C@@H](CCC(N)=O)C(=O)N1CCC[C@@H]1C(=O)N1CCC[C@H]1C(=O)N[C@@H](CCc1ccccc1)C(=O)N2
B2: Example 155 (peptide)
peptide: XCTASXPPQCF
HELM: PEPTIDE1{[O=C([C@H](CCc1ccccc1)N[*:1])[*:2]].C.T.A.S.[Cha].P.P.Q.C.F.[dP].P}$PEPTIDE1,PEPTIDE1,2:R3-10:R3|PEPTIDE1,PEPTIDE1,1:R1-13:R2$$$V2.0
SMILES: C[C@@H]1NC(=O)[C@H]([C@@H](C)O)NC(=O)[C@@H]2CSSC[C@H](NC(=O)[C@H](CCC(N)=O)NC(=O)[C@@H]3CCCN3C(=O)[C@@H]3CCCN3C(=O)[C@H](CC3CCCCC3)NC(=O)[C@H](CO)NC1=O)C(=O)N[C@@H](Cc1ccccc1)C(=O)N1CCC[C@@H]1C(=O)N1CCC[C@H]1C(=O)N[C@@H](CCc1ccccc1)C(=O)N2
notes: also called Ex. 155

Assays:
Assay in all cases: enzyme inhibition, pNA substrate
[1] = molecular target: T1, CathepsinG, from human neutrophils
[2] = molecular target: T3, Coagulation Factor Xa, from uman plasma (human, UniProt P00742 41-179; P00742 235-488, limits assumed)
T3 construct: purified natural enzyme, bought; also called FXa

Chymase, from human skin = molecular target: T2, Chymase, from human skin
[3] = molecular target: T4, Urokinase from human urine (human, UniProt P00749 21-431, limits assumed)
T4 construct: purified natural enzyme, bought

[4] = molecular target: T5, Chymotrypsin, from human pancreas (human, UniProt P17538 19-263)
T5 construct: purified natural enzyme, bought

[5] = molecular target: Thrombin, from Human Plasma, high activity (human, UniProt P00734 328-622)
[6] = molecular target: T6, Tryptase, from human lung (human, UniProt Q15661 31-275, limits assumed)
T6 construct: purified natural enzyme, bought

[7] = molecular target: T7, Trypsin, Iodination grade, from human pancreas (human, UniProt P07477 24-247)
T7 construct: purified natural enzyme, bought

T5 sequence (P17538 19-263): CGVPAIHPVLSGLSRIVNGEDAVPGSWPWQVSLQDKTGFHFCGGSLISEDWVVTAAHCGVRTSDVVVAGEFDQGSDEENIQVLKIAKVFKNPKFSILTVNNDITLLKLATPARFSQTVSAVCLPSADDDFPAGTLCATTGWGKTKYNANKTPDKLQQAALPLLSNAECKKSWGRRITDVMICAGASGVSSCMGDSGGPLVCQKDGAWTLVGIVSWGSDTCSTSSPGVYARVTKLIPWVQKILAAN
T6 sequence (Q15661 31-275 limits assumed): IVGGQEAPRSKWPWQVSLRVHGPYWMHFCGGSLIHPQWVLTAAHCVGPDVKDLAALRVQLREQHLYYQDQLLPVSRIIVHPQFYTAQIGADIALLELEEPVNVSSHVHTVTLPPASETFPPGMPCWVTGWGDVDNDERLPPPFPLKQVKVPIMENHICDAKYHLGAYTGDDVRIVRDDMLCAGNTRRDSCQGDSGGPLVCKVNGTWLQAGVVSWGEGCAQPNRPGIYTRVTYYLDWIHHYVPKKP
T3 sequence (P00742 41-179 limits assumed, chain 1 of 2): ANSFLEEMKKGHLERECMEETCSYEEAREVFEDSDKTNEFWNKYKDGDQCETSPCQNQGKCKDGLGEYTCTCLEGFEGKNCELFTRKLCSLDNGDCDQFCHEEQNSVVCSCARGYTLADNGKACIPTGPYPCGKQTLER
T3 sequence (P00742 235-488 limits assumed, chain 2 of 2): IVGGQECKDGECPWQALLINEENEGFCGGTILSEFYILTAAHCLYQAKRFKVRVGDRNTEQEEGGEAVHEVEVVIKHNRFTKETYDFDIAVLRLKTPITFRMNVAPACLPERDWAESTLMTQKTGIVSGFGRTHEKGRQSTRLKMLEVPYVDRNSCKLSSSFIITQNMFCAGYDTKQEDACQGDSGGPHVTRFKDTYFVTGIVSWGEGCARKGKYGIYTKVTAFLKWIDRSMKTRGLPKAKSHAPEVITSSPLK

| Binder | % inhibition at 100 µM [1] [%] | % inhibition at 100 µM [2] [%] | % inhibition at 100 µM (Chymase, from human skin) [%] | % inhibition at 100 µM [3] [%] | % inhibition at 100 µM [4] [%] | % inhibition at 100 µM [5] [%] | % inhibition at 100 µM [6] [%] | % inhibition at 100 µM [7] [%] |
| --- | --- | --- | --- | --- | --- | --- | --- | --- |
| B1 | 56 | 11 | 0 | 16 | 84 | 16 |  |  |
| B2 | 52 |  |  | 12 | 83 | 19 | 30 | 18 |
